From patent US20230312710A1 (Hoffmann-La Roche, published 2023)

T1: human CD19 on WSU-DLCL2 cells (human, UniProt P15391 20-556)
T1 construct: Endogenous CD19 of the B-cell non-Hodgkin lymphoma line WSU-DLCL2; also called CD19+ WSU-DLCL2; human CD19-expressing tumor cells
T1 sequence: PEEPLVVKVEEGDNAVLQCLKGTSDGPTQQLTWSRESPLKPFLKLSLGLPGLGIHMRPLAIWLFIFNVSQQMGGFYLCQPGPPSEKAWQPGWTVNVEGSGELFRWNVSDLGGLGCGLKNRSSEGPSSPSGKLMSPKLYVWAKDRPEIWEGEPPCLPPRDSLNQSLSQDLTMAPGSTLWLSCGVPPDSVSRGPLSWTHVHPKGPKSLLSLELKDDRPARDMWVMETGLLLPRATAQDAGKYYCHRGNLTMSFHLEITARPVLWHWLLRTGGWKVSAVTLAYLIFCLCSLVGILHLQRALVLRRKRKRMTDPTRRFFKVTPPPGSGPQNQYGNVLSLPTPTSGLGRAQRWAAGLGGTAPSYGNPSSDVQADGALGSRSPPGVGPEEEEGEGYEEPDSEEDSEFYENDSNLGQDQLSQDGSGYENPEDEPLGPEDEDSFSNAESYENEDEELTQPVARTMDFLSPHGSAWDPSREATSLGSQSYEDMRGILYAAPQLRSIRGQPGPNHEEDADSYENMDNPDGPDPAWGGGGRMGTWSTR


What was measured:
[1] = target: T2, monomeric human CD19 Fc(kih) fusion protein (human, UniProt P0DOX5 223-449 = IgG part); experiment: SPR ProteOn XPR36, Fab from bacterial supernatant captured by anti-human Fab, monomeric CD19-Fc as analyte
T2 construct: Heterodimeric Fc fusion with a single copy of the CD19 ectodomain; Part of the preparation was biotinylated at the Avi tag; the SPR text speaks of 'purified monomeric CD19-Fc' as analyte without saying whether it was biotinylated; also called monomeric CD19-Fc; human CD19-Fc fusion protein
Experimental: In order to further characterize the ELISA-positive clones, the off-rate was measured by surface plasmon resonance using a ProteOn XPR36 machine and compared with the parental humanized clone 8B8.
For this experiment, 7000 RU of polyclonal anti-human Fab antibody were immobilized on all 6 channels of a GLM chip by Amine coupling (NaAcetate pH4.5, 25 μl/min, 240 s) (vertical orientation). Each antibody-containing bacterial supernatant was filtered and 2-fold diluted with PBS, and then injected for 360 s at 25 μl/minute to achieve immobilization levels of between 100 and 400 response units (RU) in vertical orientation. Injection of monomeric CD19-Fc: For one-shot kinetics measurements, injection direction was changed to horizontal orientation, three-fold dilution series of purified monomeric CD19-Fc (varying concentration ranges between 150 and 6 nM) were injected simultaneously at 50 μl/min along separate channels 1-4, with association times of 180 s, and dissociation times of 300 s. […] Dissociation rate constants (koff) were calculated using a simple one-to-one Langmuir binding model in ProteOn Manager v3.1 software by simultaneously fitting the sensorgrams. […] Of note, the dissociation rate constants of clones 5A07 and 5B08 could not be determined due to inadequate fitting. […]

[2] = target: T2, monomeric human CD19 Fc(kih) fusion …; experiment: SPR ProteOn XPR36, 25 C, IgG from HEK supernatant captured by anti-human Fab, monomeric CD19-Fc as analyte
Experimental: The Affinity (KD) of the parental antibody 8B8 as well as it derivatives was measured by SPR using a ProteOn XPR36 instrument (Biorad) at 25° C. 7000 RU of polyclonal anti-human Fab antibody were immobilized on all 6 channels of a GLM chip by Amine coupling (NaAcetate pH4.5, 25 ul/min, 240 s) (vertical orientation). Each antibody-containing HEK supernatant was filtered, diluted with PBST (10 mM phosphate, 150 mM sodium chloride pH 7.4, 0.005% Tween 20) to a concentration of 10 ug/ml, and then injected at a for 360 s at 25 μl/minute to achieve immobilization levels between 500 and 800 response units (RU) in vertical orientation. Injection of monomeric CD19-Fc: For one-shot kinetics measurements, injection direction was changed to horizontal orientation, three-fold dilution series of purified monomeric CD19-Fc (varying concentration ranges between 150 and 6 nM) were injected simultaneously at 50 μl/min along separate channels 1-4, with association times of 180 s, and dissociation times of 300 s. A human IgG Fc fragment (150 nM) was injected in channel 5 as a negative control for specific binding to monomeric CD19-Fc. Buffer (PB ST) was injected along the sixth channel to provide an “in-line” blank for referencing. Regeneration was performed by two pulses of 10 mM glycine pH 1.5 and 50 mM NaOH for 30 s at 90 ul/min (vertical orientation). Association rate constants (kₒₙ) and dissociation rate constants (koff) were calculated using a simple one-to-one Langmuir binding model in ProteOn Manager v3.1 software by simultaneously fitting the association and dissociation sensorgrams. The equilibrium dissociation constant (KD) was calculated as the ratio koff/kₒₙ. The dissociation constant of all affinity-matured clones was improved compared to their parental clone 8B8.

[3] = target: T1, human CD19 on WSU-DLCL2 cells; experiment: flow cytometry on CD19+ WSU-DLCL2 cells, PE anti-human IgG F(ab')2 detection
Experimental: 0.1×10⁶ tumor cells resuspended in DPBS (Gibco by Life Technologies, Cat. No. 14190 326) were added to each well of a round-bottom suspension cell 96-well plate (greiner bio-one, cellstar, Cat. No. 650185). Cells were washed once with 200 μL DPBS. Cells were resuspended in 100 μL/well of 4° C. cold DPBS buffer containing 1:5000 diluted Fixable Viability Dye eFluor 660 (eBioscience, Cat. No. 65-0864-18) and plates were incubated for 30 minutes at 4° C. Cells were washed once with 200 μL/well 4° C. cold DPBS buffer and resuspended in 50 μL/well of 4° C. cold FACS buffer (DPBS supplied with 2% FBS, 5 mM EDTA pH8 (Amresco, Cat. No. E177) and 7.5 mM Sodium azide (Sigma-Aldrich S2002)) containing the CD19 binders at a series of concentrations, followed by incubation for 1 hour at 4° C. After extensive washing, cells were further stained with 50 μL/well of 4° C. cold FACS buffer containing 5 μg/mL PE-conjugated AffiniPure anti-human IgG F(ab′)2-fragment-specific goat F(ab′)2 fragment (Jackson ImmunoResearch, Cat. No. 109 116 098) for 30 minutes at 4° C. Cells were then washed twice with 200 μL/well 4° C. FACS buffer and cells were fixed in 50 μL/well DPBS containing 1% Formaldehyde (Sigma, HT501320-9.5L). Cells were resuspended in 100 μL/well FACS-buffer and acquired using the FACS LSR II (BD Biosciences). Data was analyzed using FlowJo V10 (FlowJo, LLC) and GraphPad Prism 6.04 (GraphPad Software, Inc).

Row | Binder | EC50 [3] [nM] | further results
1 | parental humanized anti-CD19 clone 8B8, Fab in bacterial supernatant (Fab, V domains shown, Soluble Fab expressed from the phagemid in bacterial supernatant (Flag-tagged); also called Parental 8B8; CD19 (8B8)) VH: QVQLVQSGAEVKKPGASVKVSCKASGYTFTDYIMHWVRQAPGQGLEWMGYINPYNDGSKYTEKFQGRVTMTSDTSISTAYMELSRLRSDDTAVYYCARGTYYYGSALFDYWGQGTTVTVSS VL: DIVMTQTPLSLSVTPGQPASISCKSSQSLENSNGNTYLNWYLQKPGQSPQLLIYRVSKRFSGVPDRFSGSGSGTDFTLKISRVEAEDVGVYYCLQLTHVPYTFGQGTKLEIK | – | koff [1]: 0.000301 s⁻¹
2 | anti-CD19 clone 8B8 in P329GLALA human IgG1 format (antibody, V domains shown, also called Parental 8B8; parental antibody 8B8) VH: QVQLVQSGAEVKKPGASVKVSCKASGYTFTDYIMHWVRQAPGQGLEWMGYINPYNDGSKYTEKFQGRVTMTSDTSISTAYMELSRLRSDDTAVYYCARGTYYYGSALFDYWGQGTTVTVSS VL: DIVMTQTPLSLSVTPGQPASISCKSSQSLENSNGNTYLNWYLQKPGQSPQLLIYRVSKRFSGVPDRFSGSGSGTDFTLKISRVEAEDVGVYYCLQLTHVPYTFGQGTKLEIKR | – | Kd [2]: 2.36 nM; koff [2]: 0.000134 s⁻¹; kon [2]: 56600 M⁻¹ s⁻¹
3 | anti-CD19 clone 2B03 in P329GLALA human IgG1 format (antibody, V domains shown, also called CD19 (8B8-2B03)) VH: QVQLVQSGAEVKKPGASVKVSCKASGYTFTDYITHWVRQAPGQGLEWMGYINPYNDGSKYTEKFQGRVTMTSDTSISTAYMELSRLRSDDTAVYYCARGTYYYGPDLFDYWGQGTTVTVSS VL: DIVMTQTPLSLSVTPGQPASISCKSSQSLETSTGNTYLNWYLQKPGQSPQLLIYRVSKRFSGVPDRFSGSGSGTDFTLKISRVEAEDVGVYYCLQLTHVPYTFGQGTKLEIKR | 0.041 | –
4 | anti-CD19 clone 2B11 in P329GLALA human IgG1 format (antibody, V domains shown, also called CD19 (8B8-2B11)) VH: QVQLVQSGAEVKKPGASVKVSCKASGYTFTDYIMHWVRQAPGQGLEWMGYINPYNDGSKYTEKFQGRVTMTSDTSISTAYMELSRLRSDDTAVYYCARGTYYYGPQLFDYWGQGTTVTVSS VL: DIVMTQTPLSLSVTPGQPASISCKSSQSLETSTGTTYLNWYLQKPGQSPQLLIYRVSKRFSGVPDRFSGSGSGTDFTLKISRVEAEDVGVYYCLQLLEDPYTFGQGTKLEIKR | 0.034 | –
5 | anti-CD19 clone 5H09 in P329GLALA human IgG1 format (antibody, V domains shown, also called CD19 (8B8-5H09)) VH: QVQLVQSGAEVKKPGASVKVSCKASGYTFTDYIMHWVRQAPGQGLEWMGYINPYNDGSKYTEKFQGRVTMTSDTSISTAYMELSRLRSDDTAVYYCARGTYYYGSALFDYWGQGTTVTVSS VL: DIVMTQTPLSLSVTPGQPASISCKSSQSLESSTGNTYLNWYLQKPGQSPQLLIYRVSKRFSGVPDRFSGSGSGTDFTLKISRVEAEDVGVYYCLQLIDYPVTFGQGTKLEIKR | 0.02 | –
6 | anti-CD19 clone 7H07 in P329GLALA human IgG1 format (antibody, V domains shown, also called CD19 (8B8-7H07)) VH: QVQLVQSGAEVKKPGASVKVSCKASGYTFTDYIMHWVRQAPGQGLEWMGYINPYNDGSKYTEKFQGRVTMTSDTSISTAYMELSRLRSDDTAVYYCARGTYYYGSELFDYWGQGTTVTVSS VL: DIVMTQTPLSLSVTPGQPASISCKSSQSLETSTGNTYLNWYLQKPGQSPQLLIYRVSKRFSGVPDRFSGSGSGTDFTLKISRVEAEDVGVYYCLQATHIPYTFGQGTKLEIKR | 0.034 | –
7 | anti-CD19 clone 5B08 in P329GLALA human IgG1 format (antibody, V domains shown, also called CD19 (8B8-5B08)) VH: QVQLVQSGAEVKKPGASVKVSCKASGYTFTDYIMHWVRQAPGQGLEWMGYINPYNDGSKYTEKFQGRVTMTSDTSISTAYMELSRLRSDDTAVYYCARGTYYYGPQLFDYWGQGTTVTVSS VL: DIVMTQTPLSLSVTPGQPASISCKSSQSLETSTGNTYLNWYLQKPGQSPQLLIYRVSKRFSGVPDRFSGSGSGTDFTLKISRVEAEDVGVYYCLQLDSYPNTFGQGTKLEIKR | 0.014 | –
